Reference: patent publication US20210261685A1 (Alector, published 2021)
Numbering of substitutions follows the chain as printed.

B1: MTK-33 (antibody, human IgG1, V domains shown)
VH: QVQLQQPGPELVRPGTSVKLSCKASGYTFTSYWMHWIKQRPGQGLEWIGVIDPSDNYINYNQKFKGKATLTVDTSSSTAYLQLSSLTSEDSAVYYCAREAGTRGYFDYWGQGTTLTVSS
VL: SIVMTQTPKFLLVSAGDRVIITCKASQSVSNTVAWYQQKPGQSPKLLIYYASNRYTGVPDRFTGSGYGTDFTFTISTVQAEDLAVYFCQQDYRSPFTFGSGTQLEMK
B2: MTK-05 (antibody, human IgG1, V domains shown)
VH: QVQLQQSGAELVQPGTSVRLSCKTSGYTFTSYWIQWVKQRPGQGLGWIGEIFPGTGTTYYNEKFKGKATLTIDTSSSTAYMQLSSLTSEDSAVYFCARDGAYFDVWGAGTTVTVSS
VL: DIQMTQSPASLSASVGETVTFTCRASENIFSYLAWYQQKQGKSPQLLVYNAKTLAEGVPSRFSGSGSGTHFSLKINSLQPEDFGSYYCLHHYGTPLTFGAGTKLELK
B3: MTK-19 (antibody, human IgG1, V domains shown)
VH: EVQLQQSGPELVKPGASVKISCKTSGYTFTEYTMHWVKQSHGKSLEWLGGFNPNNVITSYNQRFQGRATLTVDKSSSTAYMELRSLTSDDSAVYYCTRGDLLWSLLLPGNYFDYWGQGTTLTVSS
VL: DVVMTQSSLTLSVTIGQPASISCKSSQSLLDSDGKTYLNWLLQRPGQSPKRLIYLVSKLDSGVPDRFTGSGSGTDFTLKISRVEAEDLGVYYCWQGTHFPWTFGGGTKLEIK
B4: MTK-01 (antibody, human IgG1, V domains shown)
VH: QIQLVQSGPELKKPGETVKISCKASGYTFTNYGMNWVKQAPGKGLKCMGWINTYTGEPTYADDFKGRFAFSLETSATTAYLQINNLKNEDTATYFCARRDRYTWFAYWGQGTLVTVSA
VL: QIVLSQSPAILSASPGEKVTMTCRASSSVSYMHWYQQKPGSSPKPWIYATSNLASGVPARFSGSGSGTSYSLTISRVEAEDAATYYCQQWSSNPPTFGGGTKLEIK
B5: MTK-29 (antibody, human IgG1, V domains shown)
VH: QIQLVQSGPELKKPGETVKISCKSSGFTFTTYGMSWVKQAPGKGLKWMGWINTYSGVPTYTDDFKGRFAFSLETSASTASLQINNLKNEDTATYFCARYTNYGYFDYWGQGTTLTVSS
VL: B4 VL with S26T, S30G, D81H, S91G, P95F, G99S
B6: MTK-30 (antibody, human IgG1, V domains shown)
VH: QVQLQQPGTELVRPGASVKLSCKASGYTFTSYWMHWVKQRPGQGLEWIGNLNPNNGGTYYNEKFKSKATLTVDKSSSTAYMQLSSLTSEDSAVYYCARQILLYFDYWGQGTTLTVSS
VL: DVLMTQTPLSLPVSLGDQASISCRSSQSIVHSNGDTYLEWYLQKPGQSPKLLIYKVSNRFSGVPDRFSGSGSGTDFTLKISRVEAEDLGVYYCFQGSHVPWTFGGGTKLEIK
B7: MTK-31 (antibody, human IgG1, V domains shown)
VH: QIQLVQSGPELKKSGETVKISCKASGYTFTSYGMSWVKQAPGKGLKWMGWINTYSGVPTYADDFKGRFAFSLETSASTAYLQINNLKNEDTATYFCASLSYDGSLYHAMDYWGQGTSVTVSS
VL: B6 VL with L3S, C23S, S28T, D35N
B8: MTK-35 (antibody, human IgG1, V domains shown)
VH: QVLLQQSGPELVKPGASVQLSCKASDYTFTSYDIHWVKQRPGQGLEWIGWIYPRDGYTKYNEIFKGKATLTVDTSSTTAYMELHSLTSEDSAVYFCARAYYTNWYYFDYWGQGTTLTVSS
VL: EIVLTQSPTTMAASPGEKITITCRASSSISSHYLHWYQQKPGFSPKLLIYRTSNLASGVPARFSGSGSGTSYSLTIGTMEAEDVATYYCQQGSTIPLTFGAGTKLVLK
B9: MTK-24 (antibody, human IgG1, V domains shown)
VH: QVQLQQPGAELVKPGASVKLSCKASGYTFTSYWMHWVKQRPGQGLEWIGMIHPNINTNYNEKFKSKATLTVDISSSTAYMQLSSLTSEDSAVYYCAKRSPYSNYDWYFDVWGTGTTVTVSS
VL: DIQMTQSPASLSVSVGETVTITCRASENIYSNLAWYQQKQGKSPQLLVYAATNLADGVPSRFSGSGSGTQYSLKINSLQSEDFGSYYCQHFWGTPLTFGAGTKLELK
B10: MTK-27 (antibody, human IgG1, V domains shown)
VH: EVQLQQSGTELVRPGASVKLSCTASGFNIKDDYMHWVQQRPEQGLEWIGWIDPENGNTEYASKFQGKATITADASSNTAYLQLSSLTSEDTAVYYCSTLFSNYFDYWGQGTTLTVSS
VL: DIVMTQSQKFMSTSVGDRVSITCKASQNVRTSVAWYQQKPGQSPKALIYLASNRHTGVPDRFTGSGSGTDFTLTISNVRSEDLADYFCLQHWNYPYTFGGGTKLEIK
B11: MTK-21 (antibody, human IgG1, V domains shown)
VH: QIQLVQSGPELKKPGETVKISCKASGYTFTNFGMTWVRQAPGMDLKWMGWINTYTGEPKYADDFKGRFALSLETSASTAYLQITNFKNEDTATYFCARGGGRLGLRPLDYWGQGTTLTVSS
VL: DIQMTQTTSSLSASLGDRVTISCRASQDINNYLNWYQQKPDGTVKLLIYYTSSLHSGVPSRFSGSGSGTDYSLTITNLEQEDIATYFCQQGNTLPWTFGGGTRLEIK
B12: MTK-10 (antibody, human IgG1, V domains shown)
VH: QVTLKESGPGILQPSQTLSLTCSFSGFSLTTSGMGVGWIRQPSGKGLEWLAHIWSDDDKRSNPALKSRLTISQDSSTNQVFLKIASVDTADSATYYCSHLTPVREFAYWGPGTLVTVSE
VL: DIQMTQTTSSLSASLGDRVTISCSASQGISNYLNWFQQKPDGTVKLLIYYTSRLHSGVPSRFSGSGSGTDFSLTISNLEPEDIATYYCQQYTKLPYTFGGGTKLEIK
B13: MTK-36 (antibody, human IgG1, V domains shown)
VH: QVTLKESGPGILQPSQTLSLTCSFSGFSLSTFGMGVGWIRQPSGKGLEWLAHIWWYDDKYYEPALKSRLTISKDSSKNQVFLKIANVDTADTATYYCARIYYGTSYRYFDVWGTGTTVTVSS
VL: B4 VL with S14F, S26T, S30R, S51Y, A54T, Q88H, P95Y
B14: MTK-13 (antibody, human IgG1, V domains shown)
VH: DVQLQESGPGLVKPSQSLSLTCSVTGYSITSGYYWNWIRQFPGNKLEWMGNIDYDGSNKYNPSLKNRISITRDTSKNHFFLKLNSVTPEDTATYFCARDGGNYRSFAYWGQGTLVTVSA
VL: QIVLTQSPPIMSASPGEKVTITCSASSSVSYMYWFQQKPGTSPKLWIYSTFNLASGVPARFSGSGSGTSYSLTISRMEAEDVATYYCQQRSSYPFTFGSGTKLEIK
B15: MTK-26 (antibody, human IgG1, V domains shown)
VH: AVQFQESGPGLVKLSQSLSLTCSVTGYSITSGYYWDWIRQFPGNKLEWMGYISYDGSNNYNPSLKNRISITRDTSKNQFFLKLNSVTTEDTATYYCAREGGYYRSMDYWGQGTSVTVSS
VL: B14 VL with P9A, T22A, Y31F, Y33H, K44R, F51S, V82A

What follows are binders tested against T1, human MerTK endogenously expressed on cells (SK-MEL-5 cells; human macrophages) (human, UniProt Q12866 21-999) (assay: cell-based or functional assay).
T1 sequence: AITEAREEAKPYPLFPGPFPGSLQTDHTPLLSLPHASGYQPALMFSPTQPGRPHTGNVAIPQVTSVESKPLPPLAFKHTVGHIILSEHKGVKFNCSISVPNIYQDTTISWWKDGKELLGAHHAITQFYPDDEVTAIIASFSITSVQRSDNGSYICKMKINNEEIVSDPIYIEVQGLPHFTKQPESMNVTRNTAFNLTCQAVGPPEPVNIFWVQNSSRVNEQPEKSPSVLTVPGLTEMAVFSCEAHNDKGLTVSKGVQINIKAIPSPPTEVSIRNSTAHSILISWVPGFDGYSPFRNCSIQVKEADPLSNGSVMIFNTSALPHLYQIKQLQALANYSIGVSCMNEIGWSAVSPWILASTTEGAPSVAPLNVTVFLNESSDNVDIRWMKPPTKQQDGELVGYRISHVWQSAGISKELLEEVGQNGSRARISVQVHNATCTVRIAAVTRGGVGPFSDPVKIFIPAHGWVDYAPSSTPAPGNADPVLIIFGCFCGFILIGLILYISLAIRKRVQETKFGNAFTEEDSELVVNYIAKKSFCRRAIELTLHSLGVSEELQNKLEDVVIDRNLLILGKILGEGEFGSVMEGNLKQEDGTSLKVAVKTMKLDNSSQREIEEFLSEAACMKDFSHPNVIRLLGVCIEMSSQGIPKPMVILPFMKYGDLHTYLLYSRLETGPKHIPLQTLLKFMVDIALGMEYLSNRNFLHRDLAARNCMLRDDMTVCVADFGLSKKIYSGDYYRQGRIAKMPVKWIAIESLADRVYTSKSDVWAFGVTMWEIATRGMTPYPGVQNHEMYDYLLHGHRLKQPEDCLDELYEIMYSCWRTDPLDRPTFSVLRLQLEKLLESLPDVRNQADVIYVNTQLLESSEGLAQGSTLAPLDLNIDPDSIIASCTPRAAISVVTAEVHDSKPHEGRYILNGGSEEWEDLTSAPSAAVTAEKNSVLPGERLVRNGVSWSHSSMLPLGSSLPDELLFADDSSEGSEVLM
For B1, the “Gas6-mediated pAKT activity, average IC50, human M2c macrophages” value (“Gas6-mediated pAKT activity” for short) was 4.28 nM. In the case of B2, the “Gas6-mediated pAKT activity” value is reported as 0.246 nM. For B3, the “Gas6-mediated pAKT activity” value was 0.902 nM. B4 was tested, and the “Gas6-mediated pAKT activity” value was 1.28 nM. B5 was tested, and the “Gas6-mediated pAKT activity” value was 5.37 nM.

These binders were tested against T2, Recombinant human MerTK human Fc Chimera protein (R&D systems, Cat #391-MR-100) (human, UniProt Q12866 26-499, limits assumed) (assay: competition ELISA, His-Gas6 on captured MerTK-Fc).
T2 construct: Bought; also called recombinant human MerTK protein; MerTK-Fc
T2 sequence: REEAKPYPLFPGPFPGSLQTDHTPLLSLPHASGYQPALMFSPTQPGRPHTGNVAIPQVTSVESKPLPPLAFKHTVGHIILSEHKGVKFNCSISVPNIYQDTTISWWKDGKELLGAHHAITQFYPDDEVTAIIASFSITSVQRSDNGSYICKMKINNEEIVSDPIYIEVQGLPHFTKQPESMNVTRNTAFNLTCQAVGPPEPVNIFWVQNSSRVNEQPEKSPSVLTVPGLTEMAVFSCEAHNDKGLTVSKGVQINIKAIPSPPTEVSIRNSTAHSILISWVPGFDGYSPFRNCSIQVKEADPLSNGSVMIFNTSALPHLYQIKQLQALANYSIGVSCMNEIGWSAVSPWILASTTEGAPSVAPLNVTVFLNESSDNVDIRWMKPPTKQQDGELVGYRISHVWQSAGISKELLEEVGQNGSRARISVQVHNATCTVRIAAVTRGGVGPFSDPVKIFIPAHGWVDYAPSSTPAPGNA
Experimental: Rabbit anti-human IgG polyclonal antibody (Jackson ImmunoResearch, Cat #309-005-008) was captured to a high-protein binding plate at 2 μg/ml 4° C. overnight. After washing with 0.05% Tween20 in PBS three times, 5% BSA in PBS was added for 1 hour. Recombinant human MerTK human Fc Chimera protein (R&D systems, Cat #391-MR-100) was added at 2 μg/ml for 1 hour and the plates were then washed. Anti-MerTK antibodies were titrated to final concentration range of between 66.6 nM to 4 pM and then 40 μl of serially diluted antibody and 40 μl of His tag-conjugated recombinant Gas6 protein (R&D systems, Cat #885-GSB-050) at 3 μg/ml or His tag-conjugated recombinant ProS protein (R&D systems, Cat #9489-PS-100) at 20 μg/ml. After a further incubation for 1 hour, plates were washed and incubated for 1 hour with HRP-conjugated anti-6×His tag antibody (Abcam, Cat #ab1187). Plates were then washed and an HRP substrate (TMB) was used to develop the plates. After sufficient color change was observed, the reaction was stopped by adding 50 μl 2N H₂SO₄ and the OD was measured using a spectrophotometer (BioTek).
From these experiments, IC50 values [nM] were determined using OD450 values obtained from the dose-response curves analyzed with Prism software. Table 14 and Table 15 show IC50 values determined for anti-MerTK antibody blocking of Gas6 ligand binding and ProS ligand binding to MerTK. […] Dashes indicate lack of significant blocking; “n.a.” indicates data not available.
For B6, the IC50 was 1.26 nM. In the case of B7, the IC50 is reported as 1.29 nM. B8 gave an IC50 of 0.31 nM. B9 was tested, and the IC50 was 0.74 nM. With B10 the IC50 was 1.42 nM. For B11, the IC50 was 5.98 nM. Work on B12 yielded an IC50 of 32.4 nM. Work on B13 yielded an IC50 of 0.29 nM. B14 showed an IC50 of 18.9 nM. With B15 the IC50 was 2.93 nM.
